Like-named read-outs stand apart in the source and are kept apart here.

In one assay the target is T1, MBP:Hts^ALDO (Drosophila (S2 cell cDNA library)).
T1 chain: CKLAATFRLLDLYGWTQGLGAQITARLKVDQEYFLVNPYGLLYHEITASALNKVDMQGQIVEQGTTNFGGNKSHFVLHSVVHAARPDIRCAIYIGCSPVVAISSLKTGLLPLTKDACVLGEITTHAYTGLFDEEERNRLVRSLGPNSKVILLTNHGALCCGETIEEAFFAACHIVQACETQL

The target of assay [1] is T2, MBP:Hts^FL (Drosophila (S2 cell cDNA library)).
T2 chain: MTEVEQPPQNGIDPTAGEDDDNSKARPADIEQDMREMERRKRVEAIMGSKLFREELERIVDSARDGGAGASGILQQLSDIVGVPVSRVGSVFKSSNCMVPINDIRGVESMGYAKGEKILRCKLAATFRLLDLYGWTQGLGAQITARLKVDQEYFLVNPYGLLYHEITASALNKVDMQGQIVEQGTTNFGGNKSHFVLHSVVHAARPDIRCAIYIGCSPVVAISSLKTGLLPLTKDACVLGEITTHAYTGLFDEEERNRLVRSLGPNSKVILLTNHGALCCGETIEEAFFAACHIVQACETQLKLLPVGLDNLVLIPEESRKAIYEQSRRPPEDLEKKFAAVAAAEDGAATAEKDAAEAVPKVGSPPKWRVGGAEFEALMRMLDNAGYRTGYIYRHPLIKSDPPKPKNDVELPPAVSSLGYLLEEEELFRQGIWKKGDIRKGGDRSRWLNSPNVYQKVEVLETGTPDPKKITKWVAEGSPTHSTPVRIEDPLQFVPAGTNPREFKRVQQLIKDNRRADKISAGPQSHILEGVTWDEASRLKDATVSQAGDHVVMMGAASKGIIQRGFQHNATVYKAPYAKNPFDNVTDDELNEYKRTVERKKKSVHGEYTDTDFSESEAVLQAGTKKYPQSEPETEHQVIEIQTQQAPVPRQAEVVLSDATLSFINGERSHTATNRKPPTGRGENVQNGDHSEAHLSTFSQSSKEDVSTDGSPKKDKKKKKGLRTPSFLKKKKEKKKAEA

The next assay has as its target T3, MBP:Hts^1-319 (Drosophila (S2 cell cDNA library)).
T3 chain: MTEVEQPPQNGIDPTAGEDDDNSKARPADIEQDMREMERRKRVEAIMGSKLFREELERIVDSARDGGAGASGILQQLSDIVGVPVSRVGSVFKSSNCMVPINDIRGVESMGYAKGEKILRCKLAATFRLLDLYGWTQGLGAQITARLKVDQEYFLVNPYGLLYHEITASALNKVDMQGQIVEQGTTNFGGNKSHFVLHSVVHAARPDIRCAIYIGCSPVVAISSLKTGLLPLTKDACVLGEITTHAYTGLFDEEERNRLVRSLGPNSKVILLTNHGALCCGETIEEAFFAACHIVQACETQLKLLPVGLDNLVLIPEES

Assay [2] addresses T2, MBP:Hts^FL.
The target of assay [3] is T4, GST-fused Pins^TPR domains (Drosophila (S2 cell cDNA library), UniProt Q9VB22 1-658).
T4 chain: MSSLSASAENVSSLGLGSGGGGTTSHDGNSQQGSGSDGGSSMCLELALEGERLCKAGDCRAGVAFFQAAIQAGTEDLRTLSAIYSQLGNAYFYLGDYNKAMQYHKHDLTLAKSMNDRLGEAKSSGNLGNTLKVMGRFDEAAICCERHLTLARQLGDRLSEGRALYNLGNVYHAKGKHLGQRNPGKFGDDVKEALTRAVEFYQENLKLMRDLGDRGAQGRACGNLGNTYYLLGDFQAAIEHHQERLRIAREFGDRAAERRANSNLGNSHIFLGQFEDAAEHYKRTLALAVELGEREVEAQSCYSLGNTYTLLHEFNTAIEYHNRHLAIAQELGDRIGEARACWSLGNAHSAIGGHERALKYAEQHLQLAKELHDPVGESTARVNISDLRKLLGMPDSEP

B1: Mud^CC-PBD (domain or fragment)
chain: KLALDCKILQAKYRDAKDEIKRCEKKIKDQRLEMEGKLEKMKNKMRSLYTAEVTRMKEKQERDAAKSASELEALTAQNAKYEEHTRKLSNQIVRLNEKILEQQKQHAIISTNLRHLQMQPISETKPSSTTLTVSSSSSAPNDDWQPFKRPNVPSSNLAMEDEEGEVFNNTYLTDLKLGRVPADMTAEELIYRNSLQPPHLKST
modifications: 6xHis tag removed by TEV. Limits not printed: start set just before L1788 (N-terminal end of the CC), end at the conventional PBD boundary (about 1982). Needs the NB isoform that includes the CC and PBD exons. Three copies follow from the predicted parallel trimer.
B1: the Kd in the assay with MBP:Hts^ALDO was found to be 0.76 µM; in the assay with MBP:Hts^FL [1], 0.62 µM; in the assay with MBP:Hts^1-319, 0.55 µM; in the assay with MBP:Hts^FL [2], 1.62 µM; in assay [3], 0.186 µM.

B2: Mud^CC-PBD L1788E/I1878D (ED) mutant (domain or fragment)
chain: KLALDCKIEQAKYRDAKDEIKRCEKKIKDQRLEMEGKLEKMKNKMRSLYTAEVTRMKEKQERDAAKSASELEALTAQNAKYEEHTRKLSNQIVRLNEKDLEQQKQHAIISTNLRHLQMQPISETKPSSTTLTVSSSSSAPNDDWQPFKRPNVPSSNLAMEDEEGEVFNNTYLTDLKLGRVPADMTAEELIYRNSLQPPHLKST
modifications: 6xHis tag removed by TEV. The mutations disrupt the coiled-coil trimer. Limits not given, set by convention as for the wild type.
As for B2, the Kd in assay [3] worked out at 0.189 µM.

For the origin of these results see PMC10467427 (2023).
